The source of these data is article PMC4202109.

The target of the experiment is Fluorescently labeled ATS (intracellular segment) of PfEMP1 variant PF08_0141, full-length segment (P. falciparum). Put plainly: fluorescence polarisation.

For the substance “PFE1605w PHIST domain (residues 122–335) (domain or fragment)”, the Kd came out at 5 µM.

As usually defined, the Kd is the constant that tells how readily two partners part at equilibrium. A higher Kd goes with a looser complex.
